These results are taken from article PMC3579940.

One experiment deals with biotin-AR-CTF. The experiment is described as follows: SPR; BIAcore S51; biotin-EGFR-ligand-CTFs immobilised (~1000 RU) on streptavidin chips; GST-ZnF5-8 0.03-1.0 µM injected at 30 µL/min for 2 min, 25°C; 10 mM HEPES pH 7.4, 150 mM NaCl, 0.005% Surfactant P20; KD = kd/ka.
The next experiment concerns the target biotin-EPR-CTF. Described as above.

On to “recombinant GST-tagged ZnF5-8 of PLZF (domain or fragment)”, for which, in the experiment with biotin-AR-CTF, the Kd was determined as 76.5 nM, the koff came to 0.00144 s⁻¹ and the kon was 18700 M⁻¹ s⁻¹. In the experiment with biotin-EPR-CTF, this substance registered a Kd of 146 nM, a koff of 0.000806 s⁻¹ and a kon of 5610 M⁻¹ s⁻¹.
